According to patent EP2243792A1 (Spiber Technologies AB, dated 2010):

Legend:
[1] = biological target: the molecule itself; assay: self-association; polymerisation at pH 6, macroscopic formations and SEM
[2] = biological target: NT, N-terminal domain of major ampullate spidroin (MaSp) 1 from Euprosthenops australis (Euprosthenops australis); assay: self-association; DLS, 10 mM phosphate buffer, pH 6.0
[3] = biological target: NT, N-terminal domain of major ampullate spidroin (MaSp) 1 from Euprosthenops australis (Euprosthenops australis); assay: self-association; DLS, 10 mM phosphate buffer, pH 7.2
[4] = biological target: NT, N-terminal domain of major ampullate spidroin (MaSp) 1 from Euprosthenops australis (Euprosthenops australis); assay: self-association; DLS, 100 mM phosphate buffer, pH 6.2
[5] = biological target: NT, N-terminal domain of major ampullate spidroin (MaSp) 1 from Euprosthenops australis (Euprosthenops australis); assay: self-association; DLS, 100 mM phosphate buffer, pH 7.2
[6] = biological target: NT, N-terminal domain of major ampullate spidroin (MaSp) 1 from Euprosthenops australis (Euprosthenops australis); assay: self-association; DLS, 10 mM phosphate buffer + 150 mM NaCl, pH 6.1
[7] = biological target: NT, N-terminal domain of major ampullate spidroin (MaSp) 1 from Euprosthenops australis (Euprosthenops australis); assay: self-association; DLS, 10 mM phosphate buffer + 150 mM NaCl, pH 7.2
[8] = biological target: NT, N-terminal domain of major ampullate spidroin (MaSp) 1 from Euprosthenops australis (Euprosthenops australis); assay: self-association; DLS, 10 mM phosphate buffer + 300 mM NaCl, pH 6.2
[9] = biological target: NT, N-terminal domain of major ampullate spidroin (MaSp) 1 from Euprosthenops australis (Euprosthenops australis); assay: self-association; DLS, 10 mM phosphate buffer + 300 mM NaCl, pH 7.2
[10] = biological target: the molecule itself; assay: self-association; turbidimetry at different pH values

B1: NT4RepCT (other)
chain: MKASHTTPWTNPGLAENFMNSFMQGLSSMPGFTASQLDDMSTIAQSMVQSIQSLAAQGRTSPNKLQALNMAFASSMAEIAASEEGGGSLSTKTSSIASAMSNAFLQTTGVVNQPFINEITQLVSMFAQAGMNDVSASASAGASAAASAGAASGQGGYGGLGQGGYGQGAGSSAAAAAAAAAAAAGGQGGQGQGGYGQGSGGSAAAAAAAAAAAAAAAGRGQGGYGQGSGGNAAAAAAAAAAAAAAAGQGGQGGYGRQSQGAGSAAAAAAAAAAAAAAGSGQGGYGGQGQGGYGQSSASASAAASAASTVANSVSRLSSPSAVSRVSSAVSSLVSNGQVNMAALPNIISNISSSVSASAPGASGCEVIVQALLEVITALVQIVSSSSVGYINPSAVNQITNVVANAMAQVMGKLAAALEHHHHHH
notes: Non-natural minispidroin: NT, repetitive fragment and C-terminal domain; Made as an N-terminal fusion to His6; also called NT4RepCTHis; minispidroin NT4RepCT
binding result [1]: binds

B2: NT, N-terminal domain of major ampullate spidroin (MaSp) 1 from Euprosthenops australis (protein)
chain: GSGNSHTTPWTNPGLAENFMNSFMQGLSSMPGFTASQLDDMSTIAQSMVQSIQSLAAQGRTSPNKLQALNMAFASSMAEIAASEEGGGSLSTKTSSIASAMSNAFLQTTGVVNQPFINEITQLVSMFAQAGMNDVSA
% particles [2]: 100%
Size (nm) [2]: 687 nm
% particles [3]: 99.8%
Size (nm) [3]: 4.5 nm
% particles [4]: 99.9%
Size (nm) [4]: 4.2 nm
% particles [5]: 99.9%
Size (nm) [5]: 4.2 nm
% particles [6]: 96.8%
Size (nm) [6]: 710 nm
% particles [7]: 99.9%
Size (nm) [7]: 4.1 nm
% particles [8]: 99.9%
Size (nm) [8]: 4.4 nm
% particles [9]: 99.9%
Size (nm) [9]: 4.3 nm

B3: NT4Rep (other)
chain: GSGNSHTTPWTNPGLAENFMNSFMQGLSSMPGFTASQLDDMSTIAQSMVQSIQSLAAQGRTSPNKLQALNMAFASSMAEIAASEEGGGSLSTKTSSIASAMSNAFLQTTGVVNQPFINEITQLVSMFAQAGMNDVSASASAGASAAASAGAASGQGGYGGLGQGGYGQGAGSSAAAAAAAAAAAAGGQGGQGQGGYGQGSGGSAAAAAAAAAAAAAAAGRGQGGYGQGSGGNAAAAAAAAAAAAAAAGQGGQGGYGRQSQGAGSAAAAAAAAAAAAAAGSGQGGYGGQGQGGYGQS
notes: Non-natural minispidroin: NT domain plus a repetitive fragment derived from E. australis MaSp1; Made as a C-terminal fusion to His6TrxHis6, tag removed; also called minispidroin NT4Rep
binding result [1]: binds

B4: NT5Rep (other)
chain: GSGNSHTTPWTNPGLAENFMNSFMQGLSSMPGFTASQLDDMSTIAQSMVQSIQSLAAQGRTSPNKLQALNMAFASSMAEIAASEEGGGSLSTKTSSIASAMSNAFLQTTGVVNQPFINEITQLVSMFAQAGMNDVSASASAGASAAASAGAPGYSPAPSYSSGGYASSAASAAAAAGQGGPGGYGPAPNQGASSAAAAAAGSGQGPSGPYGTSYQISTQYTQTTTSQGQGYGSSSAGAAAAGAAGAGQGGYGGQGQGGYGQGAGGAAAAAAAAAAAAAAAGQGGQGGGGYGQGGQGGQGGQGQGGYGQGAGSSAAAAAAAAAAAAAAGRGQGGYGPGSGG
notes: Non-natural minispidroin; Made as a C-terminal fusion to His6TrxHis6, tag removed
binding result [10]: binds
